The assay has as its target mini-MUC1 polypeptide (product of the miMUC1 gene, human DF3/MUC1 with 7 variant tandem repeats) (human) (UniProt P15941). The assay is described as follows: flow cytometry, 1 ug/ml DF3 MAb on MC38/MUC1 cells, fluorescein-labeled goat anti-mouse IgG.

The values below come from US20030021770A1.

Chain of UniProt P15941 (P15941 other isoform, or with tags, fused parts or gaps mutant, form in doubt): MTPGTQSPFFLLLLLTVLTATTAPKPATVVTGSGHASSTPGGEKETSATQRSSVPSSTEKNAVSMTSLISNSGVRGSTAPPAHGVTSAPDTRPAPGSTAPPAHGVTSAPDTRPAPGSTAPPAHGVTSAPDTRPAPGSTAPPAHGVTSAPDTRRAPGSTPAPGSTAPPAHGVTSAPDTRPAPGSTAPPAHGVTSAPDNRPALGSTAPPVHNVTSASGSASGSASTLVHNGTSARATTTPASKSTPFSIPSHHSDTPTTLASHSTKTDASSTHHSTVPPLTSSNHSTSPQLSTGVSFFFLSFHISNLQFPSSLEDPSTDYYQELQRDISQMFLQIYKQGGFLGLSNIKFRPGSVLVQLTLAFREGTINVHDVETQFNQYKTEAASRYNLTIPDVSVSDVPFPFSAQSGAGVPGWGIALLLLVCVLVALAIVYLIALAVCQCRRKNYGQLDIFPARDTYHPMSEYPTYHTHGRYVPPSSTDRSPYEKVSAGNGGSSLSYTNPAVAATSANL

The substance DF3 monoclonal antibody (anti-MUC1) showed a mean fluorescence of 400 and a percent of cells positive of 87.5%.
